From publication PMC7913696

T1: PrimPol WT (human) (UniProt Q96LW4)
T1 sequence: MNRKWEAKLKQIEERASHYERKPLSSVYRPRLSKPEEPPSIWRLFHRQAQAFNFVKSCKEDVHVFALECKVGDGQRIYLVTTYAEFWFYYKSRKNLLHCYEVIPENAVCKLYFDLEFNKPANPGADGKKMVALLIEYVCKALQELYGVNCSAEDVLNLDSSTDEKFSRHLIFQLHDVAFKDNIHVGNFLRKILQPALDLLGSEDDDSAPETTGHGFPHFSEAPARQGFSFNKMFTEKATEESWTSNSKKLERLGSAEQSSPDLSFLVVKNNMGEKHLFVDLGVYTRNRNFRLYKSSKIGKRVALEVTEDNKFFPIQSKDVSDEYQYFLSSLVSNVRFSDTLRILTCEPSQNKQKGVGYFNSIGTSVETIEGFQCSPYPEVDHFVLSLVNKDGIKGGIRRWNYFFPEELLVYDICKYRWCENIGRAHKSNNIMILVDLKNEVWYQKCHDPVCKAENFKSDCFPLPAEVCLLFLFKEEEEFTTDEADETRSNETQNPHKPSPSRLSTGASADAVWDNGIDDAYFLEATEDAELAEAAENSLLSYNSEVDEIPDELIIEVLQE

B1: T3-PolDIP2 (AA 217–368), C-terminal fragment with the ApaG-like domain (domain or fragment)
chain: LRAWQEKNHPWLELSDVHRETTENIRVTVIPFYMGMREAQNSHVYWWRYCIRLENLDSDVVQLRERHWRIFSLSGTLETVRGRGVVGREPVLSKEQPAFQYSSHVSLQASSGHMWGTFRFERPDGSHFDVRIPPFSLESNKDEKTPPSGLHW

How the values were obtained:
[1] = target: T1, PrimPol WT (human)
[2] = target: T1, PrimPol WT (human); remark: listed apart in the source

Molecule | filter binding of [α-32P]dCTP (1 μM dCTP, 300 nM primer/template, 600 nM PrimPol and 600 nM FL-PolDIP2, Ca2+, 37°C), against PrimPol alone [1] | primer extension by 150 nM PrimPol on a 25/70-mer primer/template with increasing FL-PolDIP2 (up to 500 nM): percent of DNA substrate extended >3 nt [2] | primer extension by 150 nM PrimPol on a 25/70-mer primer/template with increasing T3-PolDIP2 (from 150 nM): percent of DNA substrate extended >3 nt [2]
full-length (FL) human PolDIP2 tagged with C-terminal hexa-histidine (from UniProt Q9Y2S7 52-368) (natural protein) | 3 fold | 46% | 
B1 |  |  | 32%
